Measured values taken from patent publication US20110088129A1.

Key:
[1] = molecular target: binding sites in brush border membrane vesicles (BBMV) from midguts of last instar Helicoverpa armigera larvae (Helicoverpa armigera); assay: homologous competition, 125I-Cry2Ab on H. armigera BBMV, LIGAND program
[2] = molecular target: binding sites in brush border membrane vesicles (BBMV) from midguts of last instar Helicoverpa armigera larvae (Helicoverpa armigera); assay: homologous competition on H. armigera BBMV
[3] = molecular target: binding sites in brush border membrane vesicles (BBMV) from midguts of last instar Helicoverpa zea larvae (Helicoverpa zea); assay: homologous competition on H. zea BBMV
[4] = molecular target: binding sites in brush border membrane vesicles (BBMV) from midguts of last instar Helicoverpa zea larvae (Helicoverpa zea); assay: homologous competition, 125I-Cry2Ab on H. zea BBMV, LIGAND program
[5] = molecular target: binding sites in brush border membrane vesicles (BBMV) from midguts of last instar Helicoverpa armigera larvae (Helicoverpa armigera); assay: direct saturation assay, increasing 125I-Cry2Ab on fixed H. armigera BBMV (0.2 mg/ml)

B1: Cry2Ab toxin (trypsin-activated Cry2Ab2 from recombinant B. thuringiensis strain BtIPS78/11) (ligand)
chain: NAVPLSITSSVNTMQQLFLNRLPQFQMQGYQLLLLPLFAQAANLHLSFIRDVILNADEWGISAATLRTYRDYLKNYTRDYSNYCINTYQSAFKGLNTRLHDMLEFRTYMFLNVFEYVSIWSLFKYQSLLVSSGANLYASGSGPQQTQSFTSQDWPFLYSLFQVNSNYVLNGFSGARLSNTFPNIVGLPGSTTTHALLAARVNYSGGISSGDIGASPFNQNFNCSTFLPPLLTPFVRSWLDSGSDREGVATVTNWQTESFETTLGLRSGAFTARGNSNYFPDYFIRNISGVPLVVRNEDLRRPLHYNEIRNIASPSGTPGGARAYMVSVHNRKNNIHAVHENGSMIHLAPNDYTGFTISPIHATQVNNQTRTFISEKFGNQGDSLRFEQNNTTARYTLRGNGNSYNLYLRVSSIGNSTIRVTINGRVYTATNVNTTTNNDGVNDNGARFSDINIGNVVASSNSDVPLDINVTLNSGTQFDLMNIMLVPTNISPLY
modifications: 125I label (chloramine T method) where used as the labelled ligand
For B1, the Kd [1] was 3.1 nM, the Rt (binding site concentration) (pmol/mg BBMV protein) [1] was 2.5 and the fold difference in concentration of binding sites between Cry2Ab and Cry1Ac [2] was 3 fold. It also gave a fold higher Kd than Cry1Ac [2] of 35 fold, a fold difference in concentration of binding sites between Cry2Ab and Cry1Ac [3] of 3 fold and a fold higher Kd than Cry1Ac [3] of 35 fold. It also gave a Kd [4] of 5.9 nM, a Rt (binding site concentration) (pmol/mg BBMV protein) [4] of 2.7 and a concentration at which binding reached a maximum [5] of 20 nM. It also gave a concentration at which the saturation curve deviated from linearity [5] of 5 nM.
